Results on one molecule are retold here after article PMC9636575, “MqsR is a noncanonical microbial RNase toxin that is inhibited by antitoxin MqsA via steric blockage of substrate binding” (The Journal of Biological Chemistry, 2022).

For the assay, the target named is T1, MqsR (E. coli, UniProt Q46865 1-98).
T1 construct: also called MqsR toxin; 15N-labeled MqsR
In words: NMR titration; unlabeled MqsA(1-76) titrated into 15N-labeled MqsR (50 uM); 2D [1H,15N] HSQC; 298 K; 50 mM NaCl, 20 mM Na phosphate pH 6.5, 0.5 mM TCEP, 10% D2O. The conditions noted are these: both partners purified.

T1 sequence (Q46865 whole entry): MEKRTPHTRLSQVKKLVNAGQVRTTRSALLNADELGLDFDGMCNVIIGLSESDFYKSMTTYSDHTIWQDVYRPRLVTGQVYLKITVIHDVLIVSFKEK

B1: N-terminal toxin-binding domain of MqsA (residues 1-76) (domain or fragment)
chain: MKCPVCHQGEMVSGIKDIPYTFRGRKTVLKGIHGLYCVHCEESIMNKEESDAFMAQVKAFRASVNAETVAPEFIVK
notes: also called MqsA_(1-76); unlabeled MqsA_(1-76)
As to B1, the binding result is on record as “binds”.
